These results are taken from patent US20100151486A1, “OSTEOPONTIN FUNCTIONAL EPITOPES, MONOCLONAL ANTIBODIES AGAINST THE EPITOPES AND USES THEREOF” (SHANGHAI NATIONAL ENGINEERING RESEARCH CENTER OF A, priority 2007, published 2010).

In assay [1] the test system is MDA-MB-435s cells. The assay is described as follows: Primary breast tumor growth in nude mice (MDA-MB-435s orthotopic). The class given is in vivo. The following applies: 5 mg/kg, 2 times per week; by the 10th week; P<0.05. As for the experimental part:
The MDA-MB-435s cells were detached and re-suspended in serum-free DMEM to the concentration of 5×10^7 cells/ml. Each group of 10 female 4 to 6-week old nude mice were anaesthetized by injection of sodium pentobarbital (ip.). Under sterile condition, the skin was sterilized, and a small incision (0.5-mm) was made in the skin over the lateral thorax below the right limb. The mammary fat pads (mfp) were exposed and MDA-MB-435s cells (5×10^6 in 100 μl DMEM) were orthotopically injected into the mfps. The cut was then closed. The animals were randomly divided into four groups, and each accepted the treatment as specified below from the day after the tumor cell inoculation:
1A12: 5 mg/kg, 2 times per week;
Control antibody: 5 mg/kg, 2 times per week.
The tumor formation in nude mice was observed once a week, the maxima of the diameter (length) and a perpendicular dimension of the tumor (width) were measured using a caliper, and the volume was calculated as follows: Volume=0.52×length×width^2. The changed tumor volumes were plotted versus the time into a tumor growth curve.
The tumor size was plotted versus time into a tumor growth curve. […]

Assay [2] relates to MDA-MB-435s cells. Description: Scratch wound healing assay. The class given is cell-based. The following applies: antibody 25 μg/ml; 24 hours. The protocol: The MDA-MB-435s cells cultured in a 12-wells plate to almost confluent (90%) washed with PBS and starved overnight with serum-free DMEM. Scratches were made on the cell monolayer using a 10 μl pipette, and PBS was added to wash away the floating cells. The test groups were treated with 25 μg/ml of the murine anti-human OPN antibody 1A12, the human-murine chimeric antibody c1A12 and the humanized antibody h1A12, and the control group, 25 μg/ml of the irrelevant antibody. The cells were incubated in an incubator at 37° C. for 24 hours. The result was expressed as the number of the cells that cross the base line.

“Also recorded” adds a separate entry of the source.

B1: 1A12: murine anti-hOPN mAb; VH SEQ ID NO: 4, VL SEQ ID NO: 6; from hybridoma 1A12 (antibody, V domains shown)
VH: QVQLEQSGPELVKPGASVKMSCKSSGYTFTTYVMHWVKQKPGQGLEWIGYINPYNDGSKYNEKFKGKATLTSDKSSNTAYMELSSLTSEDSAVYYCASHYGGSPAYWGQGTLVTVSA
VL: DILMTQTPLSLPVSLGDQASISCRSSQSLVHSNGNTYLHWYLQKPGQSPKLLIYKVSNRFSGVPDRFSGSGSGTDFTLKISRVEAEDLGVYFCSQSTHVPWTFGGGTKLEIKR
modifications: amino acid sequence of the heavy chain variable region in 1A12; amino acid sequence of the light chain variable region in 1A12
notes: murine anti-hOPN mAb; from hybridoma 1A12
As for B1, the “tumor size versus irrelevant antibody treated group” value in the assay with MDA-MB-435s cells [1] is reported as “significantly smaller; also recorded: effectively inhibit tumor development”. Besides, the “inhibition of the reparation of the scratches and damages” value with MDA-MB-435s cells [2] was “effectively inhibit”.
